Test results published in patent US20260209365A1, “ANTI-COMMON GAMMA CHAIN PROTEINS AND COMPOSITIONS OF MATTER” (SINOMAB BIOSCIENCE LIMITED, priority 2023, published 2026).
Positions count from the first letter of the chain named. Blank lines part the entries; values can stand above or below the molecule they belong to.

Legend:
[1] = test system: IL-15 induced p-STAT5; assay: Suppression of p-STAT in PBMC, IL-15; type: cell-based, human; conditions: antibody 10 μg/ml, compared to isotype control
Description: Given numbers refer to the percentage of inhibition compared to isotype control stimulated with respective γc cytokine. Antibody concentration is 10 μg/ml.

[2] = target: T1, human γc proteins (Homo sapiens, UniProt P31785); assay: BLI binding kinetics to human γc protein
T1 construct: extracellular domain of human γc protein (amino acids: 1-262); host or cells: Expi-CHO (e.g.)
T1 sequence (P31785 23-262): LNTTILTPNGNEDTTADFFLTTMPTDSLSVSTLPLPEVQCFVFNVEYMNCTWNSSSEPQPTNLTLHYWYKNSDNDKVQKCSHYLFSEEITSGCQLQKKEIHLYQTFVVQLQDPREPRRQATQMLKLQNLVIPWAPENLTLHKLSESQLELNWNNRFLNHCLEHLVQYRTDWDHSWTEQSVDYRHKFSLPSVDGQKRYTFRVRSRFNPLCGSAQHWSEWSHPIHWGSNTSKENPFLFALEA
Description: Full-length humanized antibodies were evaluated by BLI to access their binding kinetics. The binding activities of full-length anti-γc antibody were investigated using γc proteins (extracellular domain) from human and common marmoset (either purchased or in-house generated). Briefly, anti-γc antibody (20 μg/mL) was immobilized on biosensors via interactions with anti-human IgG; serially diluted γc proteins (at a concentration of 158.7 nM, 79.4 Nm, 39.7n M and 0 nM respectively) were subsequently added following standard operation protocols of the Octet ReD96 system to plot out the association and dissociation curve. Irrelevant antibody (SM03, anti-human CD22 chimeric IgG1 antibody, SinoMab BioScience Limited) was used as the control reference. The KD is within the picomolar-single digit nanomolar range.

[3] = test system: T cells; assay: Mixed lymphocyte reaction (MLR) in human PBMC; type: cell-based; conditions: CFSE, flow cytometry
Description: To provide hints at effects of humanized antibodies to target GvHD, MLR assay was developed in our PBMC system (FIG. 29A). In brief, total T cells were isolated from PBMC of donor 1 while T cells were depleted from PBMC of donor 2. T cells from donor 1 were activated with a cocktail of anti-CD3 and anti-CD28 antibodies in the presence of IL-2. Simultaneously, T cells were incubated with humanized antibodies or ritlecitinib together with inducing agents. After 3 days, T cells were labelled with CFSE before co-culture with T-cell depleted culture from donor 2 for 6 days. Proliferating T cells were identified as CFSE low or CSFE negative population in flow cytometry.

[4] = test system: cynomolgus γc; assay: BLI binding kinetics to cynomolgus γc protein; design: species or system cynomolgus (Macaca fascicularis)
[5] = test system: Ramos B cells; assay: WST-8 proliferation assay, IL-4/IL-21 rescue of anti-IgM induced cell death; type: cell-based, human; conditions: humanized antibodies; 33 nM (5 μg/ml); vs ritlecitinib
Description: The effects of anti-γc antibodies in blocking IL-4 and IL-21 rescues of Ramos cell death after anti-IgM induced hyperactivation were investigated by WST-8 proliferation assay. In brief, Ramos cells (50000 cells in 100 l) were seeded into 96-well plate and stabilized at 37° C. for an hour. Cells were pretreated in anti-γc antibodies or ritlecitinib for an hour, followed by incubation of IL-4 (10 ng/ml) or IL-21 (10 ng/ml) and anti-IgM (2 ug/ml, #109-006-129, Jackson ImmunoResearch). Aft er 48 hours, 10 μl WST-8 reagent (ab228554, Abcam) was added to each well and incubated for 4 hours.
WST-8 could be reduced by cellular dehydrogenases to an orange formazan product, which the amount of formazan produced is directly proportional to the number of living Ramos cells. Optical density (OD) of each well was measured by absorbance at 450 nm using Varioskan LUX Multimode Microplate Reader (ThermoFisher Scientific).

[6] = test system: γc proteins from chimpanzee; assay: ELISA binding of full-length antibodies to chimpanzee γc; design: species or system chimpanzee (Pan troglodytes); conditions: humanized antibodies with back-mutation
Description: Selected clones of full-length antibodies were evaluated by ELISA to access the binding specificity. The binding activities of full-length anti-γc antibody were investigated using γc proteins (extracellular domain) from human (SEQ ID NO: 205-206), cynomolgus (Sequence ID: XP_005593949.1, SEQ ID NO: 207-208) and chimpanzee (Sequence ID: XP_008971810.1, SEQ ID NO: 209-210) either purchased from Sino Biological or in-house generated.
Humanized antibodies with back-mutation (hSM-05A and hSM-05E) were tested in the following assays. Binding affinities were investigated in the ELISA assays.

[7] = target: T2, mouse γc (Mus musculus, UniProt P34902); assay: BLI binding kinetics to mouse γc protein
T2 construct: 6×His (C)
T2 sequence (P34902 with tags, fused parts or gaps): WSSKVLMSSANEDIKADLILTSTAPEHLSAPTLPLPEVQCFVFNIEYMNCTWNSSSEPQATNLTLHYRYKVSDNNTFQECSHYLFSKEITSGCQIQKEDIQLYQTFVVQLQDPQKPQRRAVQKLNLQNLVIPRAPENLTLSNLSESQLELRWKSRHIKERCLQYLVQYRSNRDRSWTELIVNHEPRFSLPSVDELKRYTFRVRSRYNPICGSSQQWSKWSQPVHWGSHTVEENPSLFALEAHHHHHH

[8] = test system: HaCaT cells; assay: ADCC assay on HaCaT cells with human PBMC; type: cell-based; conditions: 33 nM (5 μg/ml), vs isotype antibody
Description: γc expressing human keratinocyte HaCaT cell line was utilized as the target cells in ADCC and CDC assays. To determine the ADCC activity, HaCaT cell was pre-binded with anti-γc antibodies before co-culture with human PBMC. To determine the CDC activity, HaCaT cell was pre-binded with anti-γc antibodies before incubation with low-endotoxin complement proteins extracted from guinea pig. ADCC was determined by percentage of PI+ HaCaT cells in flow cytometry analysis while CDC was measured by the WST-8 proliferative assay of HaCaT cells in a 96-well plate (FIG. 22A).

[9] = Structural stability by SEC-HPLC; type: physicochemical; conditions: for purity by SEC-HPLC after incubation: 12 days after PBS exchange at RT and 37° C.
Description: Next, structural stabilities of hSM-05A and hSM-05E were studied by incubation at either room temperature or 37° C. for around 2 weeks. SEC-HPLC was utilized to measure aggregates and degradation of antibodies. […] No degradation of the antibodies was observed aft er 2 weeks.

[10] = room temperature or 37° C. for around 2 weeks

Chain of cynomolgus γc (as listed by the source): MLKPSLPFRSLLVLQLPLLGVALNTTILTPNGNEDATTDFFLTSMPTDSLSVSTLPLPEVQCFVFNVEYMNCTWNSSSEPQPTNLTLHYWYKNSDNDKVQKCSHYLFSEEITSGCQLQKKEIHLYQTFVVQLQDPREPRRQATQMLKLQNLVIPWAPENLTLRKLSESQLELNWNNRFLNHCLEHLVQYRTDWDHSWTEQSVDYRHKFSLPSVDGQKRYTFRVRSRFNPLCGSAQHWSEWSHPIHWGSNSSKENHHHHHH
Chain of γc proteins from chimpanzee (as listed by the source): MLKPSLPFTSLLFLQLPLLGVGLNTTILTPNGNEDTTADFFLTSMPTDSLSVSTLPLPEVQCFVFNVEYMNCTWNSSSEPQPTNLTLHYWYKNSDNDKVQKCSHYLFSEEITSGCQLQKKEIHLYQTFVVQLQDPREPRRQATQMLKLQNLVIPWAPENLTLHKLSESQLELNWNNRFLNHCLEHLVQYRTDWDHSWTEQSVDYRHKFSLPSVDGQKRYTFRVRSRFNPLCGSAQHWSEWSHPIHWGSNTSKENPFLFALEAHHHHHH

Ka ([2]; Experiment 1): 119000 M⁻¹ s⁻¹ | Kdis ([2]; Experiment 1): 0.000319 s⁻¹ | Ka ([2]; Experiment 2): 175000 M⁻¹ s⁻¹ | Kdis ([2]; Experiment 2): 0.00144 s⁻¹ | Ka [4]: 22500 M⁻¹ s⁻¹ | Kdis [4]: 0.00683 s⁻¹ | Ka [7]: 6580 M⁻¹ s⁻¹ | Kdis [7]: 0.000712 s⁻¹
B1: hSM-05A: full-length humanized anti-γc antibody derived from SM-05A by framework patching (antibody, V domains shown)
VH: QVQLVQSGAEVLKPGASVKVSCKASGYTFTEYTMHWVKQARGQRLEWIGGIDPYNGGATYNQRFKGKATLTTDTSTSTAYMELRNLRSDDTAVYYCARRRLYYGNALDYWGQGTLVTVSS
VL: DIVMTQSPLSLPVTPGEQASISCRSSQSLVHSNGNTYLHWYLQKPGQSPQLLIYKVSSRFSGVPDRFSGSGSGTDFTLKISRVEAEDVGVYFCSQTTHVPFTFGSGTKLEIKR
IL-15 induced p-STAT5, percentage of inhibition [1]: 100% | inhibition of MLR induced expansion of cytotoxic T cells [3]: could significantly inhibit | suppression of MLR induced expansion of T helper cells [3]: the suppression was milder to T helper cells | restimulation of anti-IgM induced cell death in presence of IL-4 or IL-21 (WST-8) [5]: can restimulate anti-IgM induced cell death in a comparable level to ritlecitinib | ELISA binding to chimpanzee γc [6]: retained the binding affinity and specificity | ADCC activity [8]: could not induce any ADCC nor CDC activities | purity by SEC-HPLC after incubation [9]: around 99.9% | aggregation state after incubation [9, 10]: remained as single molecule

Ka ([2]; Experiment 1): 119000 M⁻¹ s⁻¹ | Kdis ([2]; Experiment 1): 0.000573 s⁻¹ | Ka ([2]; Experiment 2): 327000 M⁻¹ s⁻¹ | Kdis ([2]; Experiment 2): 0.000944 s⁻¹ | Ka [4]: 22500 M⁻¹ s⁻¹ | Kdis [4]: 0.00683 s⁻¹ | Ka [7]: 340000 M⁻¹ s⁻¹ | Kdis [7]: 0.0252 s⁻¹
B2: hSM-05E: full-length humanized anti-γc antibody derived from SM-05E by framework patching (antibody, V domains shown)
VH: B1 VH with Y54N, N55T, A58V, R63K, L101R, N105Y
VL: B1 VL with L29I, H39E, S58N, T96S, T102M
IL-15 induced p-STAT5, percentage of inhibition [1]: 100% | inhibition of MLR induced expansion of cytotoxic T cells [3]: could significantly inhibit | suppression of MLR induced expansion of T helper cells [3]: the suppression was milder to T helper cells | restimulation of anti-IgM induced cell death in presence of IL-4 or IL-21 (WST-8) [5]: can restimulate anti-IgM induced cell death in a comparable level to ritlecitinib | ELISA binding to chimpanzee γc [6]: retained the binding affinity and specificity | ADCC activity [8]: could not induce any ADCC nor CDC activities | purity by SEC-HPLC after incubation [9]: around 80% | fraction forming aggregates [9, 10]: around 20%
